# Measurements reported in patent US20080019909A1, “Modulation of Programmed Necrosis” (priority 2003, published 2008).
# B1: kinase-inactive form of apoptosis signaling kinase ASK1: kinase inactive version of ASK1, expressed from transfected plasmid (protein, UniProt Q99683 1-1374, looked up, variant K709R)
# Mitogen-activated protein …: MSTEADEGITFSVPPFAPSGFCTIPEGGICRRGGAAAVGEGEEHQLPPPPPGSFWNVESAAAPGIGCPAATSSSSATRGRGSSVGGGSRRTTVAYVINEASQGQLVVAESEALQSLREACETVGATLETLHFGKLDFGETTVLDRFYNADIAVVEMSDAFRQPSLFYHLGVRESFSMANNIILYCDTNSDSLQSLKEIICQKNTMCTGNYTFVPYMITPHNKVYCCDSSFMKGLTELMQPNFELLLGPICLPLVDRFIQLLKVAQASSSQYFRESILNDIRKARNLYTGKELAAELARIRQRVDNIEVLTADIVINLLLSYRDIQDYDSIVKLVETLEKLPTFDLASHHHVKFHYAFALNRRNLPGDRAKALDIMIPMVQSEGQVASDMYCLVGRIYKDMFLDSNFTDTESRDHGASWFKKAFESEPTLQSGINYAVLLLAAGHQFESSFELRKVGVKLSSLLGKKGNLEKLQSYWEVGFFLGASVLANDHMRVIQASEKLFKLKTPAWYLKSIVETILIYKHFVKLTTEQPVAKQELVDFWMDFLVEATKTDVTVVRFPVLILEPTKIYQPSYLSINNEVEEKTISIWHVLPDDKKGIHEWNFSASSVRGVSISKFEERCCFLYVLHNSDDFQIYFCTELHCKKFFEMVNTITEEKGRSTEEGDCESDLLEYDYEYDENGDRVVLGKGTYGIVYAGRDLSNQVRIAIREIPERDSRYSQPLHEEIALHKHLKHKNIVQYLGSFSENGFIKIFMEQVPGGSLSALLRSKWGPLKDNEQTIGFYTKQILEGLKYLHDNQIVHRDIKGDNVLINTYSGVLKISDFGTSKRLAGINPCTETFTGTLQYMAPEIIDKGPRGYGKAADIWSLGCTIIEMATGKPPFYELGEPQAAMFKVGMFKVHPEIPESMSAEAKAFILKCFEPDPDKRACANDLLVDEFLKVSSKKKKTQPKLSALSAGSNEYLRSISLPVPVLVEDTSSSSEYGSVSPDTELKVDPFSFKTRAKSCGERDVKGIRTLFLGIPDENFEDHSAPPSPEEKDSGFFMLRKDSERRATLHRILTEDQDKIVRNLMESLAQGAEEPKLKWEHITTLIASLREFVRSTDRKIIATTLSKLKLELDFDSHGISQVQVVLFGFQDAVNKVLRNHNIKPHWMFALDSIIRKAVQTAITILVPELRPHFSLASESDTADQEDLDVEDDHEEQPSNQTVRRPQAVIEDAVATSGVSTLSSTVSHDSQSAHRSLNVQLGRMKIETNRLLEELVRKEKELQALLHRAIEEKDQEIKHLKLKSQPIEIPELPVFHLNSSGTNTEDSELTDWLRVNGADEDTISRFLAEDYTLLDVLYYVTRDDLKCLRLRGGMLCTLWKAIIDFRNKQT
# B2: RIPc: C-terminal fragment of RIP (amino acids 325-671) (protein, UniProt Q13546 325-671, looked up, fragment)
# chain: CVAVPSSRSNSATEQPGSLHSSQGLGMGPVEESWFAPSLEHPQEENEPSLQSKLQDEANYHLYGSRMDRQTKQQPRQNVAYNREEERRRRVSHDPFAQQRPYENFQNTEGKGTAYSSAASHGNAVHQPSGLTSQPQVLYQNNGLYSSHGFGTRPLDPGTAGPRVWYRPIPSHMPSLHNIPVPETNYLGNTPTMPFSSLPPTDESIKYTIYNSTGIQIGAYNYMEIGGTSSSLLDSTNTNFKEEPAAKYQAIFDNTTSLTDKHLDPIRENLGKHWKNCARKLGFTQSQIDEIDHDYERDGLKEKVYQMLQKWVMREGIKGATVGKLAQALHQCSRIDLLSSLIYVSQN
# B3: p35: known apoptosis inhibitor, transfected plasmid (protein, UniProt P08160 1-299, looked up)
# Early 35 kDa protein: MCVIFPVEIDVSQTIIRDCQVDKQTRELVYINKIMNTQLTKPVLMMFNISGPIRSVTRKNNNLRDRIKSKVDEQFDQLERDYSDQMDGFHDSIKYFKDEHYSVSCQNGSVLKSKFAKILKSHDYTDKKSIEAYEKYCLPKLVDERNDYYVAVCVLKPGFENGSNQVLSFEYNPIGNKVIVPFAHEINDTGLYEYDVVAYVDSVQFDGEQFEEFVQSLILPSSFKNSEKVLYYNEASKNKSMIYKALEFTTESSWGKSEKYNWKIFCNGFIYDKKSKVLYVKLHNVTSALNKNVILNTIK
# B4: RIPn: N-terminal cleavage product of RIP (amino acids 1-324) (protein, UniProt Q13546 1-324, looked up, fragment)
# chain: MQPDMSLNVIKMKSSDFLESAELDSGGFGKVSLCFHRTQGLMIMKTVYKGPNCIEHNEALLEEAKMMNRLRHSRVVKLLGVIIEEGKYSLVMEYMEKGNLMHVLKAEMSTPLSVKGRIILEIIEGMCYLHGKGVIHKDLKPENILVDNDFHIKIADLGLASFKMWSKLNNEEHNELREVDGTAKKNGGTLYYMAPEHLNDVNAKPTEKSDVYSFAVVLWAIFANKEPYENAICEQQLIMCIKSGNRPDVDDITEYCPREIISLMKLCWEANPEARPTFPGIEEKFRPFYLSQLEESVEEDVKSLKKEYSNENAVVKRMQSLQLD
# B5: wild-type RIP: wild-type receptor-interacting protein expressed in RIP -/- cells (protein, UniProt Q13546 1-671, looked up)
# Receptor-interacting …: MQPDMSLNVIKMKSSDFLESAELDSGGFGKVSLCFHRTQGLMIMKTVYKGPNCIEHNEALLEEAKMMNRLRHSRVVKLLGVIIEEGKYSLVMEYMEKGNLMHVLKAEMSTPLSVKGRIILEIIEGMCYLHGKGVIHKDLKPENILVDNDFHIKIADLGLASFKMWSKLNNEEHNELREVDGTAKKNGGTLYYMAPEHLNDVNAKPTEKSDVYSFAVVLWAIFANKEPYENAICEQQLIMCIKSGNRPDVDDITEYCPREIISLMKLCWEANPEARPTFPGIEEKFRPFYLSQLEESVEEDVKSLKKEYSNENAVVKRMQSLQLDCVAVPSSRSNSATEQPGSLHSSQGLGMGPVEESWFAPSLEHPQEENEPSLQSKLQDEANYHLYGSRMDRQTKQQPRQNVAYNREEERRRRVSHDPFAQQRPYENFQNTEGKGTAYSSAASHGNAVHQPSGLTSQPQVLYQNNGLYSSHGFGTRPLDPGTAGPRVWYRPIPSHMPSLHNIPVPETNYLGNTPTMPFSSLPPTDESIKYTIYNSTGIQIGAYNYMEIGGTSSSLLDSTNTNFKEEPAAKYQAIFDNTTSLTDKHLDPIRENLGKHWKNCARKLGFTQSQIDEIDHDYERDGLKEKVYQMLQKWVMREGIKGATVGKLAQALHQCSRIDLLSSLIYVSQN
# B6: RIP-D324A: non-cleavable mutant of RIP (protein, UniProt Q13546 1-671, looked up, variant D324A)
# Receptor-interacting …: MQPDMSLNVIKMKSSDFLESAELDSGGFGKVSLCFHRTQGLMIMKTVYKGPNCIEHNEALLEEAKMMNRLRHSRVVKLLGVIIEEGKYSLVMEYMEKGNLMHVLKAEMSTPLSVKGRIILEIIEGMCYLHGKGVIHKDLKPENILVDNDFHIKIADLGLASFKMWSKLNNEEHNELREVDGTAKKNGGTLYYMAPEHLNDVNAKPTEKSDVYSFAVVLWAIFANKEPYENAICEQQLIMCIKSGNRPDVDDITEYCPREIISLMKLCWEANPEARPTFPGIEEKFRPFYLSQLEESVEEDVKSLKKEYSNENAVVKRMQSLQLACVAVPSSRSNSATEQPGSLHSSQGLGMGPVEESWFAPSLEHPQEENEPSLQSKLQDEANYHLYGSRMDRQTKQQPRQNVAYNREEERRRRVSHDPFAQQRPYENFQNTEGKGTAYSSAASHGNAVHQPSGLTSQPQVLYQNNGLYSSHGFGTRPLDPGTAGPRVWYRPIPSHMPSLHNIPVPETNYLGNTPTMPFSSLPPTDESIKYTIYNSTGIQIGAYNYMEIGGTSSSLLDSTNTNFKEEPAAKYQAIFDNTTSLTDKHLDPIRENLGKHWKNCARKLGFTQSQIDEIDHDYERDGLKEKVYQMLQKWVMREGIKGATVGKLAQALHQCSRIDLLSSLIYVSQN
# Assays:
# caspase-8 -/- J3.2 cells = test: TNF cytotoxic assay (cell loss by PI exclusion on FACS), caspase-8 -/- J3.2 cells
# [1] = system: TNFR-2+ RIP -/- Jurkat cells (R1.1); test: TNF cytotoxic assay (cell loss by PI exclusion on FACS), TNFR-2+ RIP -/- cells; assay type: cell-based; details: TNFR-2+ RIP -/- cells reconstituted with RIP mutants, stimulated with TNF
# Excerpt: The results are representative of three experiments.
Molecule,restoration of response to TNF (TNF killing) by transfected RIP constructs [1],further results
B1,,"TNF-induced programmed necrosis, transfected kinase-inactive constructs (caspase-8 -/- J3.2 cells; caspase-8 -/- J3.2 cells co-transfected with pEGFP-N1, 10 ng/ml rhTNFα, 16 hours, GFP positive cells): not"
B2,restored,
B3,,"TNF-induced programmed necrosis, transfected apoptosis inhibitors (caspase-8 -/- J3.2 cells; caspase 8 -/- J3.2 cells transfected with plasmids, 12 hours stimulation with TNF): failed to confer protection"
B4,failed to restore,
B5,potently restored,
B6,potently restored,
